Here are results for 32 molecules from patent publication US20090297524A1 (DOMANTIS, published 2009).

T1: Recombinant human CD40L (human, UniProt P29965 108-261, limits assumed)
T1 construct: also called CD40 ligand
T1 sequence (looked up): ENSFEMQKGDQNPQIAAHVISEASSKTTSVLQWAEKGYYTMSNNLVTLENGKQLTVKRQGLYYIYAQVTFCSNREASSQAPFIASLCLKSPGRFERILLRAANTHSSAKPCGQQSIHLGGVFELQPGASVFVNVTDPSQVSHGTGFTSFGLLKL

B1: DOM.95 (other)
VH: EVQLLESGGGLVQPGGSLRLSCAASGFTFREYDMLWVRQAPGKGLEWVSTIVGDGNGTYYADSVKGRFTISRDNSKNTLYLQMNSLRAEDTAVYYCAKQDRQFDYWGQGTLVTVSS
notes: VH dAb
B2: DOM-15 (other)
VH: EVQLLESGGGLVQPGGSLRLSCAASGFTFEEYVMSWVRQAPGKGLEWVSTISPIGLTTYYADSVKGRFTISRDNSKNTLYLQMNSLRAEDTAVYYCAEFPLIILPDFDYWGQGTLVTVSS
notes: VH dAb
B3: DOM.97 (other)
VH: EVQLLESGGGLVQPGGSLRLSCAASGFTFEEYGMSWVRQAPGKGLEWVSTISPIGVTTYYADSVKGRFTISRDNSKNTLYLQMNSLRAEDTAVYYCAKNAYDRKSNFDYWGQGTLVTVSS
notes: VH dAb
B4: DOM-11 (other)
VH: EVQLLESGGGLVQPGGSLRLSCAASGFTFGDYEMSWVRQAPGKGLEWVSGIDGEGSDTYYADSVKGRFTISRDNSKNTLYLQMNSLRAEDTAVYYCAKPGRSFDYWGQGTLVTVSS
notes: VH dAb
B5: DOM-58 (other)
VH: EVQLLESGGGLVQPGGSLRLSCAASGFTFEVYTMAWVRQAPGKGLEWVSTIDESGRDTYYADSVKGRFTISRDNSKNTLYLQMNSLRAEDTAVYYCAKPGVWFDYWGQGTLVTVSS
notes: VH dAb
B6: DOM-83 (other)
VH: EVQLLESGGGLVQPGGSLRLSCAASGFTFALYQMAWVRQAPGKGLEWVSSIDSSGSDTYYADSVKGRFTISRDNSKNTLYLQMNSLRAEDTAVYYCAKPERDFDYWGQGTLVTVSS
notes: VH dAb
B7: DOM-42 (other)
VH: EVQLLESGGGLVQPGGSLRLSCAASGFTFGPYEMTWVRQAPGKGLEWVSSIVGDGLDTYYADSVKGRFTISRDNSKNTLYLQMNSLRAEDTAVYYCAKPDRVFDYWGQGTLVTVSS
notes: VH dAb
B8: DOM-28 (other)
VH: EVQLLESGGGLVQPGGSLRLSCAASGFTFGHYDMAWVRQAPGKGLEWVSTISDNGNGTYYADSVKGRFTISRDNSKNTLYLQMNSLRAEDTAVYYCAKPGRDFDYWGQGTLVTVSS
notes: VH dAb
B9: DOM-43 (other)
VH: EVQLLESGGGLVQPGGSLRLSCAASGFTFASYEMAWVRQAPGKGLEWVSSIGSDGGPTYYADSVKGRFTISRDNSKNTLYLQMNSLRAEDSAVYYCAKPDRAFDYWGQGTLVTVSS
notes: VH dAb
B10: DOM-57 (other)
VH: EVQLLESGGGLVQPGGSLRLSCAASGFTFSEYDMYWVRQAPGKGLEWVSWIDTDGGDTYYADSVKGRFTISRDNSKNTLYLQMNSLRAEDTAVYYCAKPGLKFDYWGQGTLVTVSS
notes: VH dAb
B11: DOM-78 (other)
VH: EVQLLESGGGLVQPGGSLRLSCAASGFTFERYQMAWVRQAPGKGLEWVSTISSDGGGTYYADSVKGRFTISRDNSKNTLYLQMNSLRAEDTAVYYCAKPGHRFDYWGQGTLVTVSS
notes: VH dAb
B12: DOM-80 (other)
VH: EVQLLESGGGLVQPGGSLRLSCAASGFTFGRYQMAWVRQAPGKGLEWVSSISSDGGGTYYADSVKGRFTISRDNSKNTLYLQMNSLRAEDTAVYYCAKPSRRFDYWGQGTLVTVSS
notes: VH dAb
B13: DOM.130 (other)
VH: EVQLLESGGGLVQPGGSLRLSCTASGFTFAGYQMSWVRQAPGKGLEWVSSITNEGVSTYYADSVKGRFTISRDNSKNTLYLQMNSLRAEDTAVYYCAKPGKYFDYWGQGTLVTVSS
notes: VH dAb
B14: DOM.129 (other)
VH: EVQLLESGGGLVQPGGSLRLSCAASGFTFPKYEMAWVRQAPGKGLEWVSSIDGDGKSTYYADSVKGRFTISRDNSKNTLYLQMNSLRAEDTAVYYCAKPDQFFDYWGQGTLVTVSS
notes: VH dAb
B15: DOM.128 (other)
VH: EVQLLESGGGLVQPGGSLRLSCAASGFTFERYQMAWVRQAPGKGLEWVSTISSDGGGTYYADSVKGRFTISRDNSKNTLYLQMNSLRAEDTAVYYCAKPGTVFDYWGQGTLVTVSS
notes: VH dAb
B16: DOM-65 (other)
VH: EVQLLESGGGLVQPGGSLRLSCAASGFTFNEYEMTWVRQAPGKGLEWVSTITSEGSGTYYADSVKGRFTISRDNSKNTLYLQMNSLRAEDTAVYYCAKPNGKFDYWGQGTLVTVSS
notes: VH dAb
B17: DOM.131 (other)
VH: EVQLLESGGGLVQPGGSLRLSCAASGFTFGEYEMVWVRQAPGKGLEWVSSITSDGLSTYYADSVKGRFTISRDNSKNTLYLQMNSLRAEDTAVYYCAKPGIRFDYWGQGTLVTVSS
notes: VH dAb
B18: DOM-67 (other)
VH: EVQLLESGGGLVQPGGSLRLSCAASGFTFSDYEMSWVRQAPGKGLEWVSTIDSDGSFTYYADSVKGRFTISRDNSKNTLYLQMNSLRAEDTAVYYCAKPGVKFDYWGQGTLVTVSS
notes: VH dAb
B19: DOM-41 (other)
VH: EVQLLESGGGLVQPGGSLRLSCAASGFTFFEYEMTWVRQAPGKGLEWVSSIANDGSTTYYADSVKGRFTISRDNSKNTLYLQMNSLRAEDTAVYYCAKPDRQFDYWGQGTLVTVSS
notes: VH dAb
B20: DOM-19 (other)
VH: EVQLLESGGGLVQPGGSLRLSCAASGFPFPQYQMAWVRQAPGKGLEWVSMITSDGLDTYYADSVKGRFTISRDNSKNTLYLQMNSLRAEDTAVYYCAKPEPLFDYWGQGTLVTVSS
notes: VH dAb
B21: DOM-25 (other)
VH: EVQLLESGGGLVQPGGSLRLSCAASGFTFDNYEMTWVRQAPGKGLEWVSTITSQGTSTYYADSVKGRFTISRDNSKNTLYLQMNSLRAEDTAVYYCAKPDRSFDYWGQGTLVTVSS
notes: VH dAb
B22: DOM-84 (other)
VH: EVQLLESGGGLVQPGGSLRLSCAASGFTFRQYQMAWARQAPGKGLEWVSTIASDGVSTYYADSVKGRFTISRDNSKNTLYLQMNSLRAEDTAVYYCAKVGRDFDYWGQGTLVTVSS
notes: VH dAb
B23: DOM-74 (other)
VH: EVQLLESGGGLVQPGGSLRLSCAASGFTFSDYPMTWVRQAPGKGLEWVSTILSPGTETYYADSVKGRFTISRDNSKNTLYLQMNSLRAEDTAVYYCAKAEKDFDYWGQGTLVTVSS
notes: VH dAb
B24: DOM-73 (other)
VH: EVQLLESGGGLVQPGGSLRLSCAASGFTFSKYDMSWVRQAPGKGLEWVSTILEDGLTTYYADSVKGRFTISRDNSKNTLYLQMNSLRAEDTAVYYCAKPGRLFDYWGQGTLVTVSS
notes: VH dAb
B25: DOM-14 (other)
VH: EVQLLESGGGLVQPGGSLRLSCAASGFTFWSYDMTWVRQAPGKGLEWVSSIMASGDDTYYADSVKGRFTISRDNSKNTLYLQMNSLRAEDTAVYYCAKWDRDFDYWGQGTLVTVSS
notes: VH dAb
B26: DOM-29 (other)
VH: EVQLLESGGGLVQPGGSLRLSCAASGFTFGRYQMAWVRQAPGKGLEWVSSISSDGGGTYYADSVKGRFTISRDNSKNTLYLQMNSLRAEDTAVYYCAKPGRAFDYWGQGTLVTVSS
notes: VH dAb
B27: DOM-23 (other)
VH: EVQLLESGGGLVQPGGSLRLSCAASGFTFGLYEMTWVRQAPGKGLEWVSSITGDGISTYYADSVKGRFTISRDNSRNTLYLQMNSLRAEDTAVYYCAKAGRKFDYWGQGTLVTVSS
notes: VH dAb
B28: DOM-66 (other)
VH: EVQLLESGGGLVQPGGSLRLSCAASGFTFSDYEMLWVRQAPGKGLEWVSTITSEGHSTYYADSVKGRFTISRDNSKNTLYLQMNSLRAEDTAVYYCAKPGTSFDYWGQGTLVTVSS
notes: VH dAb
B29: DOM-26 (other)
VH: EVQLLESGGGLVQPGGSLRLSCAASGFTFRSYEMTWVRQAPGKGLEWVSSITSDGGTTYYADSVKGRFTISRDNSKNTLYLQMNSLRAEDTAVYYCAKPDKTFDYWGQGTLVTVSS
notes: VH dAb
B30: DOM-68 (other)
VH: EVQLLESGGGLVQPGGSLRLSCAASGFTFKDYEMTWVRQAPGKGLEWVSSISSTGQSTYYADSVKGRFTISRDNSKNTLYLQMNSLRAEDTAVYYCAKPGNKFDYWGQGTLVTVSS
notes: VH dAb
B31: DOM-22 (other)
VH: EVQLLESGGGLVQPGGSLRLSCAASGFTFHNYEMSWVRQAPGKGLEWVSSISSGGSSTYYADSVKGRFTISRDNSKNTLYLQMNSLRAEDTAVYYCAKPGVKFDYWGQGTLVTVSS
notes: VH dAb
B32: DOM.98 (other)
VH: EVQLLESGGGLVQPGGSLRLSCAASGFTFDRYVMVWVRQAPGKDLEWVSGITPSGRRTYYADSVKGRFTISRDNSKDTLYLQMNSLRAEDTAVYYCAKVLGRHFDPLLPSFDYWGQGTLVTVSS
notes: VH dAb

The test concerns the target T1, Recombinant human CD40L. Put plainly: CD40L/CD40-Fc receptor binding assay.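 Note: plate assay with coated human CD40-Fc, bound ligand detected via HRP anti-biotin antibody and TMB, OD at 450 nm, lower signal indicates stronger inhibition by dAb.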
Method: A 96 well Nunc Maxisorp assay plate was coated overnight at 4° C. with 100 μl per well of recombinant human CD40/Fc (R&D Systems) at 0.5 μg/ml in carbonate buffer. The plate was washed 3 times with 300 μl of 0.05% Tween/PBS and 3 times with 300 μl of PBS using a Tecan plate washer. The wells were blocked using 200 μl of PBS containing 2% (w/v) BSA and incubated for a minimum of 1 h at room temperature. The wells were washed as above, then 50 μl of purified dAb protein (or unpurified supernatant containing dAb from a micro-culture expression) was added to each well.
The plate was washed as described above, then 100 μl HRP conjugated anti-biotin antibody (1:5000 dilution in diluent) added to each well and the plate incubated for 1 hr at room temperature. The plate was washed again as described above using a Tecan plate washer and the assay developed using 100 μl of SureBlue 1-Component TMB MicroWell Peroxidase solution (the plate was left at room temperature for up to 20 min). The reaction was stopped by the addition of 100 μl M hydrochloric acid. The OD₄₅₀ₙₘ of the plate was assayed within 30 minutes of acid addition. The OD₄₅₀ₙₘ is proportional to the amount of bound streptavidin-HRP conjugate, therefore the greater the degree of dAb inhibition the lower the OD₄₅₀ₙₘ of the resulting signal.
On to B1, for which the binding result is “binds”.
Turning to B2, the binding result is on record as “binds”.
As for B3, the entry is “binds”; as for B4, “binds”.
The entry for B5 is “binds”; for B6 it is “binds”; for B7 it is “binds”.
For the molecule B8, the binding result was “binds”.
The entry for B9 is “binds”; for B10 it is “binds”; for B11 it is “binds”.
Regarding B12, the binding result was “binds”.
B13: the binding result is “binds”.
The entry for B14 is “binds”; for B15 it is “binds”.
The entry for B16 is “binds”; for B17 it is “binds”.
As for B18, the entry is “binds”.
For B19, the binding result is given as “binds”.
With B20, the binding result is “binds”.
As for B21, the entry is “binds”.
As for B22, the entry is “binds”; as for B23, “binds”.
For the molecule B24, the binding result was “binds”.
The entry for B25 is “binds”; for B26 it is “binds”.
The entry for B27 is “binds”; for B28 it is “binds”.
The entry for B29 is “binds”; for B30 it is “binds”; for B31 it is “binds”.
B32: the binding result is “binds”.
